# Test results: patent US20150342943A1, “METHODS OF TREATING LIVER DISEASE” (Gilead Sciences, Inc., priority 2014, published 2015)
# B1: AB0023: murine anti-LOXL2 antibody, heavy chain variable region SEQ ID NO: 15, light chain variable region SEQ ID NO: 16 (antibody, V domains shown)
# VH: MEWSRVFIFLLSVTAGVHSQVQLQQSGAELVRPGTSVKVSCKASGYAFTYYLIEWVKQRPGQGLEWIGVINPGSGGTNYNEKFKGKATLTADKSSSTAYMQLSSLTSDDSAVYFCARNWMNFDYWGQGTTLTVSS
# VL: MRCLAEFLGLLVLWIPGAIGDIVMTQAAPSVSVTPGESVSISCRSSKSLLHSNGNTYLYWFLQRPGQSPQFLIYRMSNLASGVPDRFSGSGSGTAFTLRISRVEAEDVGVYYCMQHLEYPYTFGGGTKLEIK
# modifications: anti-LOXL2 antibody AB0023 heavy chain variable region; anti-LOXL2 antibody AB0023 light chain variable region
# Legend:
# primary human HSCs [1] = test: α-SMA Assay in TGF-β-stimulated hepatic stellate cells; type: cell-based; conditions: 24 h, read-out: α-SMA Assay EC50
# Procedure: For quantification of α-SMA protein expression, HSC's were plated at a density of 10,000 cells/well in collagen coated 96-well plates (BD-Biosystems). […] HSCs were fixed in 4% PFA, permeabilized in 0.02% Triton-X-100, blocked for 30 min. and stained with an anti-α-SMA specific antibody (Sigma) and a flourescently labeled secondary antibody (Invitrogen). α-SMA expression was quantified on a fluorescent plate reader.
# HSCs = test: Quantitative RT-PCR of TGF-β1-induced gene transcription in HSCs; type: cell-based, human; conditions: pre-treated HSCs, TGF-β1 5 ng/ml for 48 hrs
# Procedure: For gene expression assays, RNA was isolated using commercially available kit (Qiagen Midikit), converted to cDNA (Retroscript Kit, Ambion) and tested for expression of genes involved in fibrosis with human probes on ABI 7300 (Applied Biosystems). All assays were performed in triplicate.
# Quantitative RT-PCR was used to determine the effects of compounds to inhibit TGF-β1-induced gene transcription of αSMA, COL1α1, […], and lumican.
# primary human HSCs [2] = test: Collagen Assay (Sircol) in TGF-β-stimulated hepatic stellate cells; conditions: read-out: Collagen Assay EC50
# Procedure: Collagen synthesis, α-SMA (smooth muscle actin) expression, and changes in transcript expression were measured in response to stimulation from ROS (reactive oxygen species) and TGF-β.
# Commercially available primary human HSCs (Sciencell) were plated at a density of 250,000 cells/well on 12-well plates (Corning). HSCs were co-stimulated with 5 ng/mL TGF-β+/− ASK1 inhibitor compounds. Collagen production was assessed by Sircol Assay where extracellular collagen was digested with pepsin, followed by acid extraction, neutralization, and colometric quantification using the Sircol assay kit according to the manufacturer's protocols (BioColor).
# male C57BL/6 mice = test: Interventional NASH model (treatment from day 240 of high fat, high cholesterol, high sugar diet); type: in vivo
# Procedure: Liver homogenate (1.5 mL) was transferred to 1.5 mL Eppindorf tubes and centrifuged at 14,000 rpm for 10 min. Supernate was transferred to 96-deep well plate and diluted 1:1 with 4 M HCl. HYP levels were quantified using a commercially available hydroxyproline assay (Quickzyme Biosciences).
# Commercially available high fat, high cholesterol, high sugar diet was administered continuously to 12 week old male C57BL/6 mice for 320 days. […] Animal cohorts (n=15) were sacrificed after 80 days of treatment. Collagen synthesis and hydroxyproline (HYP) were measured using D2O labeling. Second harmonic imaging was used to quantitate collagen morphometry.
# Commercially available high fat, high cholesterol, high sugar diet was administered continuously to 12 week old male C57BL/6 mice for 320 days. […] At 80 days of treatment, collagen synthesis and HYP levels in each group (n=15) were determined using D2O labeling. […] Liver homogenate (1.5 mL) was centrifuged at 14,000×rpm for 10 min and the resulting supernate was d diluted 1:1 with 4 M HCl. HYP levels were quantified using a commercially available hydroxyproline assay (Quickzyme Biosciences).
# In addition, immunohistochemistry and immunoblot analysis were used to characterize the levels of phospho-p38 (p-p38), phospho-JNK1 (p-JNK1), and phospho-MKK4 (p-MKK4) proteins.
# Mdr2^−/− BALB/c = test: Interventional PSC model; type: in vivo, mice
# Procedure: Control groups received treatment with either vehicle or an unrelated isotype-matched control IgG (i.e. a murine IgG1). Portal venous pressure
# (PVP) was measured invasively by direct cannulation of the portal vein with a micro-tip pressure monitor at the end of the study. Liver fibrosis was evaluated by histology, biochemical determination of collagen and analysis of profibrogenic gene expression by qRT-PCR.
# [3] = system: TAA-induced liver fibrosis; test: TAA-induced liver fibrosis; conditions: in vivo
Molecule,EC50 (primary human HSCs [1]),"TGF-β1-induced responses in RNA levels of αSMA, COL1α1, TIMP1, and lumican (HSCs)",EC50 (primary human HSCs [2]),"synthesis rates of extracellular matrix proteins (Col1a1, Col1a3, and Col1a5) (male C57BL/6 mice; Example 3)",blood glucose and insulin levels (male C57BL/6 mice; additional studies),"relative hydroxyproline levels (male C57BL/6 mice; additional studies, FIG. 30)","reduction of hepatic collagen deposition (hydroxyproline levels) (Mdr2^−/− BALB/c; 6 weeks treatment, vs control group)","portal venous pressure (PVP) (Mdr2^−/− BALB/c; end of study, control 10.1±0.2)","fibrosis progression in Mdr2^−/− mice (Mdr2^−/− BALB/c; mouse, in vivo)",TAA-induced fibrosis progression [3]
Cc1cc(F)c(C(=O)Nc2cccc(-c3nncn3C(C)C)n2)cc1-n1cnc(C2CC2)c1 [Compound 3],18.9 nM,blocked or inhibited,11.6 nM,,,,,,,
B1,,,,affected,did not affect,did not result in a decrease,38%,8.36±0.23 mmHg,blocked,blocked
